These are literature values, as cited in publication PMC12756081.

Data set [1] has as its target IL-18Rα/IL-18Rβ (Homo sapiens) (UniProt Q13478). As to conditions: cited from earlier work.
A further data set addresses IL-18Rα (Homo sapiens) (UniProt Q13478). Particulars: cited from earlier work.

IL-18, sequence (Q14116 37-193): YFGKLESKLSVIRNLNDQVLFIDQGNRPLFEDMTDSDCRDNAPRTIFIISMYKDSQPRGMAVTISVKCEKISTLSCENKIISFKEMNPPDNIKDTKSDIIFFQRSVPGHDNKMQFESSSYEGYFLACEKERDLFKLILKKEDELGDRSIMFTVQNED
IL-18Rα (Homo sapiens), sequence (Q13478 19-541): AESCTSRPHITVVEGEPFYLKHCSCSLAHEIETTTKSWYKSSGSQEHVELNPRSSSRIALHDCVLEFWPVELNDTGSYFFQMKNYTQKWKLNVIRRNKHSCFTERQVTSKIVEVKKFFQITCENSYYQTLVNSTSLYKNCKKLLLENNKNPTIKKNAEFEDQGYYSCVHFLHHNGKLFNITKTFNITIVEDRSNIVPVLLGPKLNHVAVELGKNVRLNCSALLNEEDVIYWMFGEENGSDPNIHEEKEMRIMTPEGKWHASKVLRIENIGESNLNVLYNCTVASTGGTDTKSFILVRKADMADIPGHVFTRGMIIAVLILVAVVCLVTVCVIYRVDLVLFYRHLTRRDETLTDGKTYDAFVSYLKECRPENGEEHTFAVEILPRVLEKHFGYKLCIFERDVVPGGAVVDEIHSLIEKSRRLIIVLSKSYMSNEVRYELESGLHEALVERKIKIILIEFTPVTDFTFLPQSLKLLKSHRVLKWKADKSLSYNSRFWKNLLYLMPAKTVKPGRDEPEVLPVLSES
IL-18Rα/IL-18Rβ (Homo sapiens), sequence (Q13478 19-541, chain 1 of 2): as the sequence (Q13478 19-541) above
IL-18Rα/IL-18Rβ (Homo sapiens), sequence (O95256 20-599, chain 2 of 2, further chain): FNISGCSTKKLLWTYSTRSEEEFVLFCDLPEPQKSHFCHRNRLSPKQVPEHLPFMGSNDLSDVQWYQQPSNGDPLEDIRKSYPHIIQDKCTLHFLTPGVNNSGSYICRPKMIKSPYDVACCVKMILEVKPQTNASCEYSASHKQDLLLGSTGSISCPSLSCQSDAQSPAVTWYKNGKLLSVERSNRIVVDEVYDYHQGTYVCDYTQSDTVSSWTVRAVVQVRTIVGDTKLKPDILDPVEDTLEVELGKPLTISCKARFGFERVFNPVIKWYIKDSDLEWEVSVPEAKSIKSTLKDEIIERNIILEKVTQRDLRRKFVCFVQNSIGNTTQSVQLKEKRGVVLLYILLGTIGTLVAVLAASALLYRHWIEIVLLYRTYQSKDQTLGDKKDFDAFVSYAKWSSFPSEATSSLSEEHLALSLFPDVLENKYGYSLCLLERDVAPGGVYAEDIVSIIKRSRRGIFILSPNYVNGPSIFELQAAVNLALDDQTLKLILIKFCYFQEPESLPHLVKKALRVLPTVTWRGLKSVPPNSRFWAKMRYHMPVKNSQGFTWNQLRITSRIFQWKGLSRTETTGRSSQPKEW

In the case of IL-18 (from UniProt Q14116), the values for the Kd (in data set [1]; in the data set with IL-18Rα (Homo sapiens)) were 1 nM and 30 nM, respectively.

A word on the Kd: it is a measure of binding affinity in units of concentration.
